Data as given in patent US20020058637.

Key:
[1] = system: phosphorylated peptide p-K2
[2] = target: tau-protein extracted from bovine brain followed by purification (not phosphorylated by TPK-I) (UniProt P29172)
Sequence of tau-protein extracted from bovine brain followed by purification (not phosphorylated by TPK-I) (P29172 2-448): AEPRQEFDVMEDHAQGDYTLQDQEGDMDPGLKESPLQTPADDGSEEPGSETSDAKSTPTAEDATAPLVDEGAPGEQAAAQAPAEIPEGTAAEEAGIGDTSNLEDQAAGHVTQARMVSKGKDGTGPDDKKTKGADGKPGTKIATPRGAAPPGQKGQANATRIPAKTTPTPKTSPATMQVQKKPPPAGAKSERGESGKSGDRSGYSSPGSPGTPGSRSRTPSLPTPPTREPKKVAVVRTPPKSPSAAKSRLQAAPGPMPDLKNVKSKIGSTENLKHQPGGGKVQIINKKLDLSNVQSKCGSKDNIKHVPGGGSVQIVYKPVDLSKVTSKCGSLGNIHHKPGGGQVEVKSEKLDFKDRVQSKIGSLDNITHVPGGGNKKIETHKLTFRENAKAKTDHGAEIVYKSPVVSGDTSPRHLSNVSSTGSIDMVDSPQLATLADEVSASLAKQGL

recombinant human TPK-I expressed in Escherichia coli BL21(DE3) from pET3C/TPKI (partially purified)
phosphorylation of peptide (Peptide K2): that of K2 hardly proceeded | phosphorylation of peptide [1]: the phosphorylation of p-Ka proceeded | phosphoric acid incorporated into tau-protein (phosphorylating method I) [2]: 1.2 moles of phosphoric acid was incorporated into one molecule of tau-protein

recombinant human-originated tau-protein kinase I expressed in Sf9 insect cells (partially purified)
initial speed of phosphorylation of peptide (phosphorylating method I) (Peptide K2): phosphorylation of K2 was slow and its initial speed was about one-tenth of that of p-K2 | phosphorylation of peptide (phosphorylating method I) [1]: the progress of phosphorylation of p-K2 was clearly noted | amount of phosphoric acid incorporated in tau-protein (phosphorylating method I, 32P) [2]: incorporation of tau-protein into phosphoric acid was confirmed

tau-protein kinase II (TPK-II) purified from bovine brain microtubule
phosphorylation of peptide (phosphorylating method II) (Peptide K2): phosphorylated peptide (hereinafter, abbreviated as "p-K2") was obtained
